Data from patent publication US20220348970A1, “METHODS AND COMPOSITIONS FOR 3-HYDROXYPROPIONATE PRODUCTION” (The Regents of the University of California, priority 2017, published 2022).

Legend:
[1] = molecular target: Actinobacillus succinogenes PCK (phosphoenolpyruvate carboxykinase), SEQ ID NO: 163 (Actinobacillus succinogenes, UniProt A6VKV4); experiment: Kinetics of PEPCK against PEP (carboxylation direction, malate dehydrogenase/NADH coupled); assay type: biochemical; settings: 100 mM PBS buffer (pH 6.5), 1.25 mM ADP, 50 mM KHCO3, 2 mM MnCl2
Protocol: (§1) 5 genes encoding candidate PEPCKs were synthesized and cloned into expression vectors. After obtaining solubly expressed proteins, they were used for activity characterization. Each enzyme was assayed in the phosphenolpyruvate carboxylation direction in a solution containing 100 mM PBS buffer (pH 6.5), 0.20 mM NADH, 1.25 mM ADP, 2.5 mM PEP, 50 mM KHCO3, 2 mM MnCl2, and 4 units malate dehydrogenase.

[2] = substrate: NC(=O)c1ccc[n+]([C@@H]2O[C@H](COP(=O)([O-])OP(=O)(O)OC[C@H]3O[C@@H](n4cnc5c(N)ncnc54)[C@H](O)[C@@H]3O)[C@@H](O)[C@H]2O)c1; experiment: 3-HPDH activity towards 3-HP (reverse reaction) using NAD+; assay type: biochemical; settings: other: activity towards 3-HP, pH 7.2, 21° C.
Protocol: (§2) Candidate ADHs were expressed in E. coli, and soluble expression levels were analyzed. 3-HP dehydrogenase (3-HPDH) activity of each was tested based on the reverse reaction, from 3-HP to 3-oxopropanoate. The assay was performed in a 96-well half-area plate. Each reaction contained a final concentration of 1 mM NADP^+/NAD^+ in reaction buffer (100 mM Hepes, 100 mM NaCl, 10% glycerol, pH 7.2) and ADHs. A range of substrates from 0.1 mM-5 mM was used to perform steady-state kinetics measurement over a period of an hour. Absorbance readings were taken every 1 min at OD 340 at 21° C. for 60 min. using the Synergy™ H1 Hybrid Multi-Mode Microplate Reader (Biotek). Kinetic parameters (kcat and KM) were determined by fitting initial velocity versus substrate concentration data to the Michaelis-Menten equation.

[3] = substrate: C=C(OP(=O)(O)O)C(=O)O; experiment: Kinetics of PEPCK against PEP (carboxylation direction, malate dehydrogenase/NADH coupled); assay type: biochemical, E. coli; settings: other: PEP, 100 mM PBS buffer (pH 6.5), 1.25 mM ADP, 50 mM KHCO3, 2 mM MnCl2
Protocol: as §1

[4] = substrate: O=C(O)CC(=O)C(=O)O; experiment: OAADC kinetics of A0A0J7KM68 on oxaloacetate; assay type: biochemical; settings: other: oxaloacetate, pH 7.2, 21° C.
Protocol: (§3) All substrates were dissolved in MilliQ H2O and the pH was adjusted to 7.2 as necessary. Activity for oxaloacetate, pyruvate, and 2-ketoisovalerate was measured at a 1 mM substrate concentration. The assay was performed in a 96-well half-area plate. Each reaction contained reaction buffer (100 mM HEPES, 100 mM NaCl, 10% glycerol, pH 7.2), ADH (Sigma-Aldrich, A7011, 100 U/mL for pyruvate, 600 U/mL for oxaloacetate, and 600 U/mL for 2-ketoisovalerate), and a final concentration of 0.5 mM NADPH, 0.1 mM TPP, and 1 mM MgSO4. A range of substrate concentrations (0.1 mM-5 mM) were uSEQ to perform steady-state kinetics measurement over a period of one hour. Absorbance readings were taken at one minute intervals at 340 nm at 21° C. for 60 minutes using the Synergy H1 spectrophotometer (Biotek). Kinetic parameters (ka and Ks1) were determined by fitting initial velocity versus substrate concentration data to the Michaelis-Menten equation.
(§4) A second round of genome mining was conducted as described in Example 1, except using the 4COK sequence as the input. Genes encoding candidate OAADCs were synthesized and expressed in E. coli for further characterization. OAADC activity was assayed as described in Example 1.

[5] = substrate: NC(=O)c1ccc[n+]([C@@H]2O[C@H](COP(=O)([O-])OP(=O)(O)OC[C@H]3O[C@@H](n4cnc5c(N)ncnc54)[C@H](O)[C@@H]3O)[C@@H](O)[C@H]2O)c1; experiment: 3-HPDH activity towards 3-HP (reverse reaction) using NAD+; assay type: biochemical, Metallosphaera sedula; settings: other: activity towards 3-HP, pH 7.2, 21° C.
Protocol: as §2

[6] = substrate: O=C(O)CC(=O)C(=O)O; experiment: OAADC kinetics of 5EUJ on oxaloacetate; assay type: biochemical; settings: other: oxaloacetate, pH 7.2, 21° C.
Protocol: as §3, §4

[7] = substrate: CC(=O)C(=O)O; experiment: Steady-state kinetics of 4COK decarboxylase on pyruvate and oxaloacetate (ADH/NADPH coupled, 340 nm); assay type: biochemical, Gluconacetobacter diazotrophicus; settings: other: pH 7.2, 21° C., 0.1 mM-5 mM substrate
Protocol: Overnight cultures of BLR cells suspended in a 2 mL volume were transformed with a pet29b+ plasmid (encoding polypeptides of interest with a C-terminal His-tag) and grown in Terrific Broth with 50 μg/ml kanamycin. Cultures were diluted 1:1.000 in 500 ml of Terrific Broth with 1 mM MgSO4, 1% glucose and 50 μg/ml antibiotic and then grown at 37° C. for 24 hours. Cultures were pelleted down at 4,700 RPM for 10 minutes and resuspended in auto-induction media (LB broth, 1 mM MgSO4, 0.1 mM TPP, 1×NPS and 1×5052) for induction at 18° C. for 20 hours. At the end of induction, cells were centrifuged, the supernatant was removed and cells were resuspended in 40 mL lysis buffer (100 mM HEPES, pH 7.5, 100 mM NaCl, 10% glycerol, 0.1 mM TPP, 1 mM MgSO4, 10 mM Imidazole, 1 mM TCEP) and 1 mM phenylmethylsulphonyl fluoride. The cell lysate suspension was sonicated for 2 min and followed by centrifugation at 4,700 RPM. The supernatant was loaded onto a gravity flow column with 500 uL Cobalt beads and was washed with 15 mL of wash buffer five times. Proteins were eluted with […] of elution buffer (100 mM HEPES, pH 7.5, 100 mM NaCl, 10% glycerol, 0.1 mM TPP, 1 mM MgSO4, 200 mM Imidazole and 1 mM TCEP). Protein concentrations were determined using a Synergy H1 spectrophotometer (Biotek) by measuring absorbance at 280 nm using calculated extinction coefficients.
All substrates were dissolved in MilliQ H2O and the pH was adjusted to 7.2 as necessary. Activity for oxaloacetate, pyruvate, and 2-ketoisovalerate was measured at a 1 mM substrate concentration. The assay was performed in a 96-well half-area plate. […] Absorbance readings were taken at one minute intervals at 340 nm at 21° C. for 60 minutes using the Synergy H1 spectrophotometer (Biotek). Kinetic parameters (ka and Ks1) were determined by fitting initial velocity versus substrate concentration data to the Michaelis-Menten equation. […]

Actinobacillus succinogenes PCK (phosphoenolpyruvate carboxykinase), SEQ ID NO: 163, sequence (A6VKV4 whole entry): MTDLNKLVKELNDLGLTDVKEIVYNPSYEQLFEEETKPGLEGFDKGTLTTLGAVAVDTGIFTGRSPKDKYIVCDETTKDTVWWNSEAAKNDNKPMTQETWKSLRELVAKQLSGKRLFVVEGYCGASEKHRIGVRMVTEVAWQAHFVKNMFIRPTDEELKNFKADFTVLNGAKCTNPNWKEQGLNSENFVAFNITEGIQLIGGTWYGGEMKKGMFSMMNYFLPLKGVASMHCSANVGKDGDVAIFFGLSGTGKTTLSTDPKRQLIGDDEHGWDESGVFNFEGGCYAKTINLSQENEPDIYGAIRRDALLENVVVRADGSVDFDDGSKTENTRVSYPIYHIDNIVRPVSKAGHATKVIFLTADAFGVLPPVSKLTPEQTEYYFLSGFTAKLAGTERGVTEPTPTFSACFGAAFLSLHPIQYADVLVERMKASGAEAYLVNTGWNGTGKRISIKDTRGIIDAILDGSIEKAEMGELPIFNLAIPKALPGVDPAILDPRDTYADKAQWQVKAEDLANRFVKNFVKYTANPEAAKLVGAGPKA

In the case of `C=C(OP(=O)(O)O)C(=O)O` [PEP, phosphoenolpyruvate], the Km [1] is reported as 169 µM and the kcat [1] is reported as 2.875 s⁻¹.

B1: 3-HPDH 2CVZ, SEQ ID NO: 159 (Thermus thermophilus HB8) (protein)
chain: MEKVAFIGLGAMGYPMAGHLARRFPTLVWNRTFEKALRHQEEFGSEAVPLERVAEARVIFTCLPTTREVYEVAEALYPYLREGTYWVDATSGEPEASRRLAERLREKGVTYLDAPVSGGTSGAEAGTLTVMLGGPEEAVERVRPFLAYAKKVVHVGPVGAGHAVKAINNALLAVNLWAAGEGLLALVKQGVSAEKALEVINASSGRSNATENLIPQRVLTRAFPKTFALGLLVKDLGIAMGVLDGEKAPSPLLRLAREVYEMAKRELGPDADHVEALRLLERWGGVEIR
notes: PDB 2CVZ is from strain HB8 (ATCC 27634 / DSM 579)
B1 was tested, and the Km [2] was 0.42 mM.

B2: E. coli PCK (phosphoenolpyruvate carboxykinase, PCKA_Ecoli), SEQ ID NO: 162 (Escherichia coli K-12) (protein)
chain: MRVNNGLTPQELEAYGISDVHDIVYNPSYDLLYQEELDPSLTGYERGVLTNLGAVAVDTGIFTGRSPKDKYIVRDDTTRDTFWWADKGKGKNDNKPLSPETWQHLKGLVTRQLSGKRLFVVDAFCGANPDTRLSVRFITEVAWQAHFVKNMFIRPSDEELAGFKPDFIVMNGAKCTNPQWKEQGLNSENFVAFNLTERMQLIGGTWYGGEMKKGMFSMMNYLLPLKGIASMHCSANVGEKGDVAVFFGLSGTGKTTLSTDPKRRLIGDDEHGWDDDGVFNFEGGCYAKTIKLSKEAEPEIYNAIRRDALLENVTVREDGTIDFDDGSKTENTRVSYPIYHIDNIVKPVSKAGHATKVIFLTADAFGVLPPVSRLTADQTQYHFLSGFTAKLAGTERGITEPTPTFSACFGAAFLSLHPTQYAEVLVKRMQAAGAQAYLVNTGWNGTGKRISIKDTRAIIDAILNGSLDNAETFTLPMFNLAIPTELPGVDTKILDPRNTYASPEQWQEKAETLAKLFIDNFDKYTDTPAGAALVAAGPKL
B2 gave a Km [3] of 0.1905 mM, a kcat [3] of 3.42 s⁻¹ and a kcat/Km [3] of 18000 M⁻¹ s⁻¹.

B3: OAADC A0A0J7KM68_LASNI, SEQ ID NO: 145 (Lasius niger) (protein)
chain: MSYTVGQYLADRLVQIGLKDHFAIAGDYNLVLLDQFLKNKNWNQIYDCNELNCGFAAEGYARANGAAACVVTYTVGAISAMNSALAGAYAENLPVLCISGAPNCNDYGSGRILHHTIGKPEFTQQLDMVKHVTCAAESVVQASEAPAKIDHVIRTMLLEQRPAYIDIACNISGLECPRPGPIEDLLPQYAADNKSLTSAIDAIAKKIEASQKVTLYVGPKVRPGKAKEASVKLADALGCAVTVGPASMSFFPAKHPGFRGTYWGIVSTGDANKVVEEAETLIVLGPNWNDYATVGWKAWPKGPRVVTIDEKAAQVDGQVFSGLSMKALVEGLAKKVSKKPATAEGTKAPHFEYPVAKPDAKLTNAEMARQINAILDDNTTLHAETGDSWFNVKNMNWPNGLRIESEMQYGHIGWSIPSGFGGAIGSPERKHIIMCGDGSFQLTCQEVSQMIRYKLPVTIFLIDNHGYGIEIAIHDGPYNYIQNWNFTKLMEVFNGEGEECPYSHNKNGKSGLGLKATTPAELADAIKQAEANKEGPTLIQVVIDQDDCTKDLLTWGKEVAKTNARSPVVTDKAGGSG
B3 showed a Km [4] of 2.389 mM, a kcat [4] of 6.25 s⁻¹ and a kcat/Km [4] of 2620 ± 224 M⁻¹ s⁻¹.

B4: 3-HPDH A4YI81, SEQ ID NO: 154 (Metallosphaera sedula DSM 5348) (protein)
chain: MTEKVSVVGAGVIGVGWATLFASKGYSVSLYTEKKETLDKGIEKLRNYVQVMKNNSQITEDVNTVISRVSPTTNLDEAVRGANFVIEAVIEDYDAKKKIFGYLDSVLDKEVILASSTSGLLITEVQKAMSKHPERAVIAHPWNPPHLLPLVEIVPGEKTSMEVVERTKSLMEKLDRIVVVLKKEIPGFIGNRLAFALFREAVYLVDEGVATVEDIDKVMTAAIGLRWAFMGPFLTYHLGGGEGGLEYFFNRGFGYGANEWMHTLAKYDKFPYTGVTKAIQQMKEYSFIKGKTFQEISKWRDEKLLKVYKLVWEK
notes: UniProt strain ATCC 51363 / DSM 5348 / TH2
With B4 the Km [5] was 0.65 mM.

B5: OAADC 5EUJ, SEQ ID NO: 146 (Zymobacter palmae) (protein)
chain: MYTVGMYLAERLAQIGLKHHFAVAGDYNLVLLDQLLLNKDMEQVYCCNELNCGFSAEGYARARGAAAAIVTFSVGAISAMNAIGGAYAENLPVILISGSPNTNDYGTGHILHHTIGTTDYNYQLEMVKHVTCAAESIVSAEEAPAKIDHVIRTALRERKPAYLEIACNVAGAECVRPGPINSLLRELEVDQTSVTAAVDAAVEWLQDRQNVVMLVGSKLRAAAAEKQAVALADRLGCAVTIMAAAKGFFPEDHPNFRGLYWGEVSSEGAQELVENADAILCLAPVFNDYATVGWNSWPKGDNVMVMDTDRVTFAGQSFEGLSLSTFAAALAEKAPSRPATTQGTQAPVLGIEAAEPNAPLTNDEMTRQIQSLITSDTTLTAETGDSWFNASRMPIPGGARVELEMQWGHIGWSVPSAFGNAVGSPERRHIMMVGDGSFQLTAQEVAQMIRYEIPVIIFLINNRGYVIEIAIHDGPYNYIKNWNYAGLIDVFNDEDGHGLGLKASTGAELEGAIKKALDNRRGPTLIECNIAQDDCTETLIAWGKRVAATNSRKPQAGGSG
B5 gave a Km [6] of 6.667 mM, a kcat [6] of 28.8 s⁻¹ and a kcat/Km [6] of 4320 ± 321 M⁻¹ s⁻¹.

B6: pyruvate decarboxylase from Gluconacetobacter diazotrophicus (4COK), SEQ ID NO: 1 (Gluconacetobacter diazotrophicus PA1 5) (protein)
chain: MTYTVGRYLADRLAQIGLKHHFAVAGDYNLVLLDQLLLNTDMQQIYCSNELNCGFSAEGYARANGAAAAIVTFSVGALSAFNALGGAYAENLPVILISGAPNANDHGTGHILHHTLGTTDYGYQLEMARHITCAAESIVAAEDAPAKIDHVIRTALREKKPAYLEIACNVAGAPCVRPGGIDALLSPPAPDEASLKAAVDAALAFIEQRGSVTMLVGSRIRAAGAQAQAVALADALGCAVTTMAAAKSFFPEDHPGYRGHYWGEVSSPGAQQAVEGADGVICLAPVFNDYATVGWSAWPKGDNVMLVERHAVTVGGVAYAGIDMRDFLTRLAAHTVRRDATARGGAYVTPQTPAAAPTAPLNNAEMARQIGALLTPRTTLTAETGDSWFNAVRMKLPHGARVELEMQWGHIGWSVPAAFGNALAAPERQHVLMVGDGSFQLTAQEVAQMIRHDLPVIIFLINNHGYTIEVMIHDGPYNNVKNWDYAGLMEVFNAGEGNGLGLRARTGGELAAAIEQARANRNGPTLIECTLDRDDCTQELVTWGKRVAAANARPPRAG
notes: likely strain PAl 5 (ATCC 49037 / DSM 5601)
For B6, the Km [7] was 1.49 ± 0.43 mM, the kcat [7] was 8.25 ± 1.87 s⁻¹ and the kcat/Km [7] was 5532 ± 39.4 M⁻¹ s⁻¹.
